± gives the uncertainty stated by the source.

This data set is described as follows: self-splicing fitness, log relative to wild type (ln ratio); higher = more splicing; Tetrahymena group I intron in knt gene, E. coli kanamycin selection, DiMSum; sequences stand for … in CUCUCU…GGAGGGAAAAGUUAUCAGGCAUGCACCUGGUAGCUAGUCUUUAAACCAAUAGAUUGCAUCGGUUUAAAAGGCAAGACCGUCAAAUUGCGGGAAAGGGGUCAACAGCCGUUCAGUACCAAGUCUCAGGGGAAACUUUGAGAUGGCCUUGCAAAGGGUAUGGUAAUAAGCUGACGGACAUGGUCCUAACCACGCAGCCAAGUCCUAAGUCAACAGAUCUUCUGUUGAUAUGGAUGCAGUUCACAGACUAAAUGUCGGUCGGGGAAGAUGUAUUCUUCUCAUAAGAUAUAGUCGGACCUCUCCUUAAUGGGAGCUAGCGGAUGAAGUGAUGCAACACUGGAGCCGCUGGGAACUAAUUUGUAUGCGAAAGUAUAUUGAUUAGUUUUGGAGUACUCGUGGUCG
The essentials: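 Colonies from six replicate transformations of E. coli BL21(DE3) were pooled and amplicon-sequenced on an Illumina HiSeq 2500. The library placed an intron with all eight P1ex-region nucleotides randomised inside the knt kanamycin-resistance gene on pET-22b(+), and cells grew overnight at 37°C or 30°C on LB agar with or without 25 μg/mL kanamycin (plus 100 μg/mL carbenicillin, 50 μM IPTG, 0.2% rhamnose). Fitness is the DiMSum error-weighted combination of wild-type-normalised replicate fold changes, kanamycin versus none.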

CAACAGCAAUAUUACGGCAA: the “self-splicing fitness (ln)” value (30 °C) was -1.45 ± 0.13 and the “self-splicing fitness (ln)” value (37 °C) was -1.28 ± 0.12.
For CGGUAGCAAUAUUACGGUAG, the “self-splicing fitness (ln)” value (30 °C) was -0.557 ± 0.071 and the “self-splicing fitness (ln)” value (37 °C) is -0.0774 ± 0.089.
On the same counts, the results for ACGUAGCAAUAUUACGUGUU are -3.73 ± 0.13 and -2.37 ± 0.13.
On the same counts, the results for GUUAAGCAAUAUUACGGUAC are -1.7 ± 0.17 and -1.33 ± 0.22.
On the same counts, the results for ACCGAGCAAUAUUACGGCUG are -1.28 ± 0.073 and -1.24 ± 0.1.
On to CACCAGCAAUAUUACGGCUC, for which the “self-splicing fitness (ln)” value by setting is: (30 °C) -1.44 ± 0.075; (37 °C) -0.828 ± 0.087.
On the same counts, the results for ACACAGCAAUAUUACGAUCG are -0.738 ± 0.077 and -0.032 ± 0.1.
On the same counts, the results for AUACAGCAAUAUUACGCCCU are -0.0578 ± 0.06 and -0.247 ± 0.072.
For ACCCAGCAAUAUUACGCCAG the same measures were -3.26 ± 0.21 and -2.55 ± 0.33.
For the sequence UUCUAGCAAUAUUACGCGAG, the “self-splicing fitness (ln)” value by setting is: (30 °C) -2.97 ± 0.28; (37 °C) -1.45 ± 0.21.
On the same counts, the results for GACAAGCAAUAUUACGUCCU are -1.99 ± 0.27 and -0.755 ± 0.19.
As for GGCCAGCAAUAUUACGAUAU, the “self-splicing fitness (ln)” value is -1.67 ± 0.08 (30 °C) and -1.78 ± 0.1 (37 °C).
On to GAUGAGCAAUAUUACGCAUU, for which, where the note is “37 °C”, the “self-splicing fitness (ln)” value was -1.96 ± 0.39.
Take UCACAGCAAUAUUACGUCGG: the “self-splicing fitness (ln)” value (30 °C) was -1.43 ± 0.077 and the “self-splicing fitness (ln)” value (37 °C) is -0.796 ± 0.083.
For AGGAAGCAAUAUUACGACAC the same measures were -1.94 ± 0.12 and -1.74 ± 0.12.
As to CAUAAGCAAUAUUACGUUUC, the “self-splicing fitness (ln)” value was -3.35 ± 0.21 (30 °C) and -2.26 ± 0.2 (37 °C).
For GGCAAGCAAUAUUACGAGAU the same measures were -2.56 ± 0.21 and -0.168 ± 0.15.
With CCUUAGCAAUAUUACGUUGA, the “self-splicing fitness (ln)” value is, setting by setting: (30 °C) -3.24 ± 0.21; (37 °C) -3.02 ± 0.24.
On the same counts, the results for UCGGAGCAAUAUUACGCACA are -2.26 ± 0.46 and -2.22 ± 0.43.
With UAUCAGCAAUAUUACGAUAG, the “self-splicing fitness (ln)” value reads like this: (30 °C) -0.799 ± 0.11; (37 °C) 0.204 ± 0.15.
For CCAAAGCAAUAUUACGGCUU the same measures were -4.45 ± 0.21 and -2.32 ± 0.14.
For the sequence UAUCAGCAAUAUUACGUGAG, the “self-splicing fitness (ln)” value by setting is: (30 °C) 0.239 ± 0.054; (37 °C) 0.101 ± 0.084.
For UCACAGCAAUAUUACGCCGA the same measures were -0.333 ± 0.1 and 0.184 ± 0.14.
On the same counts, the results for GGGUAGCAAUAUUACGGUUG are -2.88 ± 0.14 and -0.949 ± 0.17.
For UGUUAGCAAUAUUACGACGC the same measures were -1.59 ± 0.2 and -1.47 ± 0.32.
Consider UUACAGCAAUAUUACGCGAG, for which the “self-splicing fitness (ln)” value was -1.02 ± 0.085 (30 °C) and -0.72 ± 0.08 (37 °C).
On the same counts, the results for AAAUAGCAAUAUUACGGUGA are -1.69 ± 0.13 and -0.521 ± 0.11.
On the same counts, the results for AUCCAGCAAUAUUACGUGGU are -3.14 ± 0.12 and -2.9 ± 0.15.
On the same counts, the results for AAGGAGCAAUAUUACGGUGG are -3.21 ± 0.15 and -2.45 ± 0.27.
As for CUGGAGCAAUAUUACGUCGG, the “self-splicing fitness (ln)” value (30 °C) was -3.08 ± 0.26.
With GGGCAGCAAUAUUACGAAAA, the “self-splicing fitness (ln)” value was -2.12 ± 0.38 (30 °C) and -2.31 ± 0.4 (37 °C).
On the same counts, the results for UGAAAGCAAUAUUACGUUCC are -1.36 ± 0.11 and -0.98 ± 0.13.
Regarding UGAUAGCAAUAUUACGGCGC, the “self-splicing fitness (ln)” value runs as follows: (30 °C) -2.62 ± 0.22; (37 °C) -1.18 ± 0.23.
On the same counts, the results for CACUAGCAAUAUUACGUAUA are -3.17 ± 0.36 and -1.5 ± 0.23.
Take CCGCAGCAAUAUUACGGAUC: the “self-splicing fitness (ln)” value (37 °C) is -2.39 ± 0.41.
With UUAGAGCAAUAUUACGCAUA, the “self-splicing fitness (ln)” value (30 °C) was -3.06 ± 0.27 and the “self-splicing fitness (ln)” value (37 °C) is -0.817 ± 0.3.
For UGGGAGCAAUAUUACGCCUA the same measures were -2.63 ± 0.44 and -1.75 ± 0.32.
For GUAUAGCAAUAUUACGCCGG the same measures were -2.45 ± 0.37 and -1.59 ± 0.35.
With CAGAAGCAAUAUUACGACCU, the “self-splicing fitness (ln)” value runs as follows: (30 °C) -2.86 ± 0.4; (37 °C) 0.0264 ± 0.23.
In the case of AUUAAGCAAUAUUACGUAUG, the “self-splicing fitness (ln)” value runs as follows: (30 °C) -2.74 ± 0.25; (37 °C) -1.47 ± 0.21.
Consider GCAUAGCAAUAUUACGGGAU, for which the “self-splicing fitness (ln)” value (30 °C) is -1.41 ± 0.085 and the “self-splicing fitness (ln)” value (37 °C) is -0.646 ± 0.11.
Consider ACGAAGCAAUAUUACGCGAA, for which the “self-splicing fitness (ln)” value by setting is: (30 °C) -2.07 ± 0.1; (37 °C) -0.608 ± 0.097.
On the same counts, the results for AGUCAGCAAUAUUACGGGCG are -0.963 ± 0.093 and 0.189 ± 0.13.
For AUAAAGCAAUAUUACGAUUC the same measures were -0.837 ± 0.085 and -0.228 ± 0.097.
For AAUCAGCAAUAUUACGGAUA the same measures were -0.0268 ± 0.069 and 0.49 ± 0.086.
As to CGGAAGCAAUAUUACGCGGU, the “self-splicing fitness (ln)” value runs as follows: (30 °C) -3.98 ± 0.29; (37 °C) -2.73 ± 0.22.
For GGUAAGCAAUAUUACGCCAU the same measures were -2.39 ± 0.36 and -1.86 ± 0.29.
On the same counts, the results for AUCCAGCAAUAUUACGGAAG are -1.1 ± 0.11 and -0.947 ± 0.14.
On the same counts, the results for UGCGAGCAAUAUUACGGUCG are -2.27 ± 0.25 and -2.39 ± 0.27.
Take CGGGAGCAAUAUUACGUAAU: for the setting “37 °C”, the “self-splicing fitness (ln)” value is -1.95 ± 0.28.
On to GCAAAGCAAUAUUACGAUCC, for which the “self-splicing fitness (ln)” value reads like this: (30 °C) -0.0105 ± 0.12; (37 °C) -0.518 ± 0.13.
On the same counts, the results for AAAGAGCAAUAUUACGAGCG are -2.08 ± 0.21 and -2.17 ± 0.24.
On the same counts, the results for CAGGAGCAAUAUUACGUCGG are -0.734 ± 0.099 and -0.66 ± 0.13.
For AUGAAGCAAUAUUACGGUCC the same measures were -0.305 ± 0.12 and 0.363 ± 0.14.
Consider GGAGAGCAAUAUUACGUCUA, for which the “self-splicing fitness (ln)” value runs as follows: (30 °C) -1.23 ± 0.13; (37 °C) -1.4 ± 0.1.
On the same counts, the results for CUAAAGCAAUAUUACGCGAC are -0.482 ± 0.14 and -0.124 ± 0.17.
On the same counts, the results for ACUAAGCAAUAUUACGGGAG are -2.5 ± 0.11 and -1.88 ± 0.14.
On the same counts, the results for ACCUAGCAAUAUUACGGGCG are -0.0397 ± 0.068 and -0.0691 ± 0.084.
Take AUGGAGCAAUAUUACGUGAC: the “self-splicing fitness (ln)” value (30 °C) was -1.88 ± 0.22 and the “self-splicing fitness (ln)” value (37 °C) is -2.11 ± 0.28.
Take GUAAAGCAAUAUUACGGCUU: the “self-splicing fitness (ln)” value reads like this: (30 °C) -0.183 ± 0.11; (37 °C) 0.219 ± 0.14.
In the case of UACGAGCAAUAUUACGCGCC, where the note is “30 °C”, the “self-splicing fitness (ln)” value is -2.33 ± 0.42.
With CCUCAGCAAUAUUACGCGUC, the “self-splicing fitness (ln)” value is -4.16 ± 0.46 (30 °C) and -2.18 ± 0.34 (37 °C).
On the same counts, the results for GUUUAGCAAUAUUACGGGAU are -2.57 ± 0.14 and -1 ± 0.15.
As to GGUGAGCAAUAUUACGGGUC, the “self-splicing fitness (ln)” value reads like this: (30 °C) -1.98 ± 0.11; (37 °C) -2.4 ± 0.15.
As for UUGGAGCAAUAUUACGCAGA, the “self-splicing fitness (ln)” value was -2.13 ± 0.33 (30 °C) and -1.13 ± 0.16 (37 °C).
Consider CUCGAGCAAUAUUACGGCUG, for which the “self-splicing fitness (ln)” value is, setting by setting: (30 °C) -3.82 ± 0.42; (37 °C) -1.94 ± 0.29.
On the same counts, the results for AUGGAGCAAUAUUACGCAUA are -1.53 ± 0.42 and -1.29 ± 0.23.
On the same counts, the results for AUCAAGCAAUAUUACGAUUA are -1.28 ± 0.11 and -0.622 ± 0.13.
For AUUUAGCAAUAUUACGCAUC the same measures were -3.58 ± 0.19 and -3.27 ± 0.32.
On to GUGAAGCAAUAUUACGUAAA, for which the “self-splicing fitness (ln)” value by setting is: (30 °C) -1.41 ± 0.086; (37 °C) -1.51 ± 0.12.
For AUUUAGCAAUAUUACGCUUC, the “self-splicing fitness (ln)” value (30 °C) is -2.33 ± 0.5.
On to GAGGAGCAAUAUUACGGACA, for which the “self-splicing fitness (ln)” value (30 °C) was -3.15 ± 0.33 and the “self-splicing fitness (ln)” value (37 °C) was -1.96 ± 0.3.
On the same counts, the results for UUUGAGCAAUAUUACGCGUG are -2.33 ± 0.14 and -0.742 ± 0.12.
On the same counts, the results for CGCUAGCAAUAUUACGUGUG are -4.15 ± 0.27 and -3.12 ± 0.19.
On the same counts, the results for CUGGAGCAAUAUUACGUCAA are -2.69 ± 0.44 and -1.19 ± 0.47.
For GUUGAGCAAUAUUACGCUAG, the “self-splicing fitness (ln)” value (30 °C) was -3.01 ± 0.44.
For GAAUAGCAAUAUUACGUCUA, the “self-splicing fitness (ln)” value by setting is: (30 °C) -1.12 ± 0.12; (37 °C) -0.42 ± 0.13.
